Assay [1] deals with ErbB2 Y735 non-phosphorylated peptide, rhodamine-labelled (human). In words: fluorescence polarisation; saturation binding in solution: rhodamine peptide fixed at 10 nM, protein titrated 0.002-10 uM, 20 min at room temperature; assay buffer 20 mM HEPES, 100 mM KCl, 0.1% Tween-20, 5 mM DTT, pH 7.8; apparent KD. In general terms: Polarisation of emitted light reports the rotation of a fluorescent probe.

The target in assay [2] is NCK1 SH2 domain (human) (UniProt P16333). Description: peptide or protein array; SH2/PTB proteins spotted on aldehyde slides, rhodamine peptide titrated in buffer B (20 mM HEPES, 100 mM KCl, 0.1% Tween-20, 5 mM DTT, pH 7.8), 1 h at room temperature; replicate assays.
Assay [3] has as its target YES1 SH2 domain (human) (UniProt P07947). Described as above.
Assay [4] has as its target SYK C-terminal SH2 domain (human). Described as above.
Assay [5] has as its target PLCG2 tandem SH2 domains (human). The assay is described as above.
Assay [6] addresses PTK6 SH2 domain (human) (UniProt Q13882). The description is as above.
Assay [7] addresses BLNK SH2 domain (human) (UniProt Q8WV28). The assay is described as above.
Assay [8] has as its target ABL2 SH2 domain (human) (UniProt P42684). Described as above.
The target in assay [9] is SYK tandem SH2 domains (human). Described as above.
Assay [10] addresses SHF SH2 domain (human) (UniProt Q7M4L6). The assay is described as above.
For assay [11], the target named is PTPN6 tandem SH2 domains (human). The description is as above.
The target of assay [12] is SH2D3C SH2 domain (human) (UniProt Q8N5H7). The assay is described as above.
SH2D3C SH2 domain (human), sequence (Q8N5H7 220-319): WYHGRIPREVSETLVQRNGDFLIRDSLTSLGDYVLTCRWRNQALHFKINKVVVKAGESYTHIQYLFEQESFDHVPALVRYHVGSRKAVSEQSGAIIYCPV
Assay [13] concerns the target SYK N-terminal SH2 domain (human). The assay is described as above.
The target of assay [14] is HCK SH2 domain (human) (UniProt P08631). Described as above.
HCK SH2 domain (human), sequence (P08631 144-241): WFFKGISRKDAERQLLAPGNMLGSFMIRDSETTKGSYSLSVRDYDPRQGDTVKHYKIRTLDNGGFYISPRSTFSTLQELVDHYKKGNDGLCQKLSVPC
The target in assay [15] is TNS1 SH2 domain (human) (UniProt Q9HBL0). The description is as above.
TNS1 SH2 domain (human), sequence (Q9HBL0 1567-1676): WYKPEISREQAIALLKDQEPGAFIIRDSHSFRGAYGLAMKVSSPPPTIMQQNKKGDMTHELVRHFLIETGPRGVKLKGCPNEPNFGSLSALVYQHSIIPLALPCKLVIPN
In assay [16] the target is SH2D1A SH2 domain (human) (UniProt O60880). Described as above.
SH2D1A SH2 domain (human), sequence (O60880 6-104): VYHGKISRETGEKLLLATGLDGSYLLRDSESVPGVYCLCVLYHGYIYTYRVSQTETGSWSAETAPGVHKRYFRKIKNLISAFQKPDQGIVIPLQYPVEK
The target in assay [17] is SH2D3A SH2 domain (human) (UniProt Q9BRG2). Described as above.
SH2D3A SH2 domain (human), sequence (Q9BRG2 15-114): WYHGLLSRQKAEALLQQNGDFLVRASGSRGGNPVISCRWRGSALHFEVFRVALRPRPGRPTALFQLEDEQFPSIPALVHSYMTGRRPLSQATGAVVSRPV
Assay [18] concerns the target RASA1 tandem SH2 domains (human). The assay is described as above.
Assay [19] addresses PIK3R2 tandem SH2 domains (human) (UniProt O00459). The assay is described as above.
Assay [20] has as its target SRC SH2 domain (human) (UniProt P12931). The description is as above.
Assay [21] has as its target SH3BP2 SH2 domain (human) (UniProt P78314). The description is as above.
Assay [22] concerns the target TEC SH2 domain (human) (UniProt P42680). The assay is described as above.
In assay [23] the target is BTK SH2 domain (human) (UniProt Q06187). The description is as above.
BTK SH2 domain (human), sequence (Q06187 281-377): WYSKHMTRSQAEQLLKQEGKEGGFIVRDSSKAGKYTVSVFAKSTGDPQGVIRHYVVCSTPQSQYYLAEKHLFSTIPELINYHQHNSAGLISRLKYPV
Assay [24] deals with BLK SH2 domain (human) (UniProt P51451). Described as above.
BLK SH2 domain (human), sequence (P51451 124-220): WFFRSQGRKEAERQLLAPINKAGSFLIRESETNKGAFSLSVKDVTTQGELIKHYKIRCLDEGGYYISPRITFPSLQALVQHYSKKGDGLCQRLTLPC
In assay [25] the target is RASA1 N-terminal SH2 domain (human) (UniProt P20936). The assay is described as above.
RASA1 N-terminal SH2 domain (human), sequence (P20936 whole entry, the tested form may be a part): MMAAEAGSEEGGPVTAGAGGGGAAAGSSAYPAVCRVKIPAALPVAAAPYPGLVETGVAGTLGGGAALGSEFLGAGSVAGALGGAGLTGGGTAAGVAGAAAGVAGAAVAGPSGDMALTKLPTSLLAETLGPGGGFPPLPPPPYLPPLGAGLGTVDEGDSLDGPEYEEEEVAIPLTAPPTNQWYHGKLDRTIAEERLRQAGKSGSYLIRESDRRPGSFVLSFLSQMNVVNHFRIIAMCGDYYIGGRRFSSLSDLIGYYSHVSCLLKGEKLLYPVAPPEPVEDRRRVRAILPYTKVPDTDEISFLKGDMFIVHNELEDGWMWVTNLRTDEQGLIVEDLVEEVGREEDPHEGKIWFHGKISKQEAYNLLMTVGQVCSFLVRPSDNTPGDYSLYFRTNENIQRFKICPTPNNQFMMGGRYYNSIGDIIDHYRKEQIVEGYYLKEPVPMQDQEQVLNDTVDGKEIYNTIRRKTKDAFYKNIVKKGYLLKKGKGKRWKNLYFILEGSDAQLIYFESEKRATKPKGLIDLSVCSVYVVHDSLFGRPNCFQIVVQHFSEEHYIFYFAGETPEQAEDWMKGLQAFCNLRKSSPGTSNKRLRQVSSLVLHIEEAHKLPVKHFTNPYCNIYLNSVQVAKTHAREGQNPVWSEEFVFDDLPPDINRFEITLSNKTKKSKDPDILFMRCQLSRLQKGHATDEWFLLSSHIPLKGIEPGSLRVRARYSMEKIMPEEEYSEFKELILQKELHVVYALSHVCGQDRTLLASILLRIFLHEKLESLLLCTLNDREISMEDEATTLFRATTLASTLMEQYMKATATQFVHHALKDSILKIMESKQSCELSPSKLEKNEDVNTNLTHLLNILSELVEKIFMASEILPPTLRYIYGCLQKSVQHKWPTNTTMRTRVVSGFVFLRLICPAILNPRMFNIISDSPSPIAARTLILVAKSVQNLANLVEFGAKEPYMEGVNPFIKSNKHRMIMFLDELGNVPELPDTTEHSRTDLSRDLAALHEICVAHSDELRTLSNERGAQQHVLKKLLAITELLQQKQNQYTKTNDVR
Assay [26] deals with ErbB3pY1307 phosphopeptide, rhodamine-labelled (human). Description: fluorescence polarisation; saturation binding in solution: rhodamine peptide fixed at 10 nM, protein titrated 0.002-10 uM, 20 min at room temperature; assay buffer 20 mM HEPES, 100 mM KCl, 0.1% Tween-20, 5 mM DTT, pH 7.8; apparent KD.
The target of assay [27] is ErbB2 Y1221 non-phosphorylated peptide, rhodamine-labelled (human). The description is as above.
Assay [28] has as its target ErbB2pY1196 phosphopeptide, rhodamine-labelled (human). The description is as above.

Values joined by “and” are separate entries in the source; they are usually repeats but may differ in a detail not shown here. Equal entries are not always repeated.

SH3BP2 SH2 domain (human), sequence (P78314 457-555): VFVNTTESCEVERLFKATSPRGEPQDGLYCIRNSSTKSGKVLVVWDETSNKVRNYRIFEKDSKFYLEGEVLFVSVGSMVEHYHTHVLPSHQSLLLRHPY
SHF SH2 domain (human), sequence (Q7M4L6 323-418): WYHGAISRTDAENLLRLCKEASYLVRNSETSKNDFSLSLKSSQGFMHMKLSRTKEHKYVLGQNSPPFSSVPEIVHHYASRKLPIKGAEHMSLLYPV
TEC SH2 domain (human), sequence (P42680 247-345): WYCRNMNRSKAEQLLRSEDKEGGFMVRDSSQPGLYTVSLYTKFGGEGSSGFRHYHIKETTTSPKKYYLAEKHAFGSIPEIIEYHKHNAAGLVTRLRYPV
YES1 SH2 domain (human), sequence (P07947 158-255): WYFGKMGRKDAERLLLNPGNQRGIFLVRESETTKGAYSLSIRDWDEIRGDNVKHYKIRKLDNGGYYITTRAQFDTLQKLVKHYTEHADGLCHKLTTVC
ABL2 SH2 domain (human), sequence (P42684 173-263): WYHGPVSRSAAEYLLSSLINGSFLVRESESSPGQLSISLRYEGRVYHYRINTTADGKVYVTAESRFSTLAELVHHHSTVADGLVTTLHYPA
BLNK SH2 domain (human), sequence (Q8WV28 346-453): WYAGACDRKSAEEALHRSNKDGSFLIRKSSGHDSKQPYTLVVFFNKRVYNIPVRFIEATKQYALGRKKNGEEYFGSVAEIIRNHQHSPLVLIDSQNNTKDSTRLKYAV
PTK6 SH2 domain (human), sequence (Q13882 78-170): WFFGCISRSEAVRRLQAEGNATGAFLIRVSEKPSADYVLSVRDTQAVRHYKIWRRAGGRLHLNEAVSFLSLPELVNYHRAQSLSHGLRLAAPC
PIK3R2 tandem SH2 domains (human), sequence (O00459 whole entry, the tested form may be a part): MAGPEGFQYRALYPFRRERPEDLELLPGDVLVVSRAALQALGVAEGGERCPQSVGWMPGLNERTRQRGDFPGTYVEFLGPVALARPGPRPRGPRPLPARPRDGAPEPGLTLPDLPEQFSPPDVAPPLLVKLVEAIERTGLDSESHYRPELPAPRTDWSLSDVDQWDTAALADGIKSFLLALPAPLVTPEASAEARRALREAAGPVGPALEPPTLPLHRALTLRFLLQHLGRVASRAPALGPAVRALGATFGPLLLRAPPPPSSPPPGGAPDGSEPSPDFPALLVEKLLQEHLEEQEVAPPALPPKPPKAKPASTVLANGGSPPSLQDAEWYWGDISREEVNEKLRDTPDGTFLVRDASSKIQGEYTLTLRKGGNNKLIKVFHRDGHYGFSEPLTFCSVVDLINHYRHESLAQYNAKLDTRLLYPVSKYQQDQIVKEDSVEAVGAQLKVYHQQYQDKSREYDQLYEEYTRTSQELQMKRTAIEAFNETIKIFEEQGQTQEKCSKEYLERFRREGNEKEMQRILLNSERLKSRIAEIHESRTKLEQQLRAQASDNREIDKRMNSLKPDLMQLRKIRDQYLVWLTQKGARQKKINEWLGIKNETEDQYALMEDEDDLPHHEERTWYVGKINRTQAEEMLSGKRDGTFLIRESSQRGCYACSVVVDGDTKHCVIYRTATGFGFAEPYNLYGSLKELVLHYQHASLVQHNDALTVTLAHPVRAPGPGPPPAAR

In the case of “ZAP70 C-terminal SH2 domain (from UniProt P43403 1-619) (domain or fragment)”, the Kd in [1] was 14900 nM.
For the substance “ErbB2 pY735 phosphopeptide, rhodamine-labelled, for protein microarrays”, the Kd was 5290 nM in [2]; 526 nM and 1600 nM in [3]; 910 nM in assay [4]; 577 nM and 2900 nM and 1010 nM in assay [5]; 801 nM in assay [6]; 46800 nM in [7]. For the same substance, the Kd in assay [8] is 1020 nM; in assay [9], 590 nM and 805 nM; in [10], 933 nM and 4390 nM; in [11], 5420 nM; in [12], 27400 nM; in [13], 801 nM and 3030 nM. Besides, the Kd in assay [14] was 888 nM; in [15] it was 1600 nM; in assay [16], 748 nM and 1630 nM; in assay [17], 773 nM; in assay [18], 81900 nM; in assay [19], 1470 nM. For the same substance, the Kd in assay [20] was 1210 nM; in assay [21], 3860 nM and 1600 nM and 634 nM; in assay [22], 3220 nM and 8700 nM; in assay [23], 1530 nM; in assay [24] it was 803 nM and 801 nM and 511 nM; in assay [25], 3460 nM.
Take “RASA1 N-terminal SH2 domain (from UniProt P20936 1-1047) (domain or fragment)”: the Kd in assay [26] came to 1880 nM; in assay [27] it was 3690 nM; in [28], 1860 nM.
